Measurements published in patent publication US20250059271A1 (BARRELMAN BIOSCIENCES, published 2025).
Where a chain is given by its changes, count along the chain named. Blank lines part the entries; values can stand above or below the binder they belong to.

Target: T1, dProgastrin-SUMO protein (dog, UniProt P01353 22-104)
T1 construct: Unknown whether the listing entry 103 holds the tag; also called dProg-Sumo protein; dog progastrin His-SUMO protein; not shown: N-terminal His-SUMO tag
T1 sequence: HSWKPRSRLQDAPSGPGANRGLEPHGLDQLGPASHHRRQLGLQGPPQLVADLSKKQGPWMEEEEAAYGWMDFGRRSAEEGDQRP
Experiment: ELISA; supernatant 1:2000 on 2 ug/ml dProgastrin-Sumo
Protocol: Deep well ELISA reading of 46 different monoclonal antibodies against 2 μg/ml dProgastrin-Sumo protein antigen versus 2 μg/ml anti rabbit antibodies. Supernatants containing the antibodies were diluted at 1:2000. […] Monoclonal antibodies with strong specificities against the dProgastrin C terminus at low concentrations include the D6 mAb, A3 mAb, and F4 mAb, among others.

OD: 2.02 OD
B1: dProg-2-D6 mAb (antibody, V domains shown)
VH: QSVKESEGGLFKPTEPLTLTCTVSGFSLSSDNMGWVRQTPGKQLEWIGWIGSSGSAYYARWAKSRSTITRNTNENTVTLKMTSLTAADTATYFCARSGWGSFDIWGPGTLVTVSS
VL: AQVLTQTPSPVSAAVGSTVTISCQSSQSVYSNNRLAWFQQKPGQPPKLLIYLASTLASGVPSRFKGSGSGTQFTLTISEVQCDDAATYYCQGYYSGYIFGFGGGTEVVVKG
notes: Recombinant rabbit monoclonal antibody; also called D6 mAb (C terminus); dprogastrin-2_D6

OD: 2.19 OD
B2: dProg-2-A3 mAb (antibody, V domains shown)
VH: QSVEESRGGLFKPTEPLTLTCTASGFTISSYHMGWVRQTPGKQLEWIGWIGSSGATYYASWATSRSTITRNTNDNTVTLKMTSLTAADTATYFCARSGWGSFDIWGPGALVTVSS
VL: B1 VL with S9A, P10S, S17G, S22N, S31N, N33D, S78G, G92S, S95N
notes: Recombinant rabbit monoclonal antibody; same entries as dProg-2-F4; Biotinylated when used for detection; also called dprogastrin-2_A3 mAb

OD: 1.99 OD
B3: dProg-2-F4 mAb (antibody, V domains shown)
VH: B2 VH
VL: B1 VL with S9A, P10S, S17G, S22N, S31N, N33D, S78G, G92S, S95N
notes: Recombinant rabbit monoclonal antibody; same entries as dProg-2-A3; also called dprogastrin-2_F4
